± gives the uncertainty stated by the source.
test: amyloid nucleation score (Sup35N fusion, yeast selection) (log enrichment); library NNK2; higher = more nucleation; inactive = no reads after selection
Summary of the method: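 Yeast lacking psi expressed peptides of 20 random codons fused to Sup35N, received 100 μM copper sulfate for 24 hours, and were then grown for 7 days at 30°C on medium lacking adenine and uracil. Illumina sequencing of input and output plasmid inserts provided the reads. Nucleation scores are DiMSum log enrichments of output over input, centred on the mode of non-aggregating sequences. Any sequence with under 100 input reads was excluded.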

| Substance | amyloid nucleation score |
| --- | --- |
| AITSLYSRSLFLVLTCTVCF | 5.683 ± 0.055 |
| AIVDFTKNFIQCAY | inactive |
| AIWVMVANSMHCCVA | 8.622 ± 0.027 |
| AKGLG | 1.52 ± 0.31 |
| AKHERSIMVDVMSGRCSTLS | 1.07 ± 0.24 |
| AKLEVQA | -0.978 ± 0.36 |
| AKPTRGSCSGT | 2.79 ± 0.12 |
| AKVCFFKHESPMGQVGAY | -1.2 ± 0.54 |
| AKVSSMVQECNLYLELETRL | inactive |
| AKYSSLKNMLYGFRRDANMG | 0.296 ± 0.65 |
| ALDGVRNSEMGKRVSGVCEY | 0.89 ± 0.28 |
| ALEFNT | 4.14 ± 0.1 |
| ALENSDSELCETAWFFHFMH | 0.185 ± 0.8 |
| ALFQECYPGMGNYQGSVATT | 1.09 ± 0.35 |
| ALFTLRVMLTTYYWQGMAEF | 0.296 ± 0.31 |
| ALIKTLYY | -0.305 ± 0.48 |
| ALILECRVRSRS | 4.16 ± 0.12 |
| ALISSPANCAISWITCILVV | 5.947 ± 0.034 |
| ALIYCVFSFPFEAYDYMRFR | inactive |
| ALLDCMWCTCVCKVSSGVVH | inactive |
| ALLQICCSFIIYHTLLPAPA | 6.11 ± 0.064 |
| ALLWWRVKLSAHYRYGLNYW | 0.27 ± 0.4 |
| ALMLWKCKARTCISPQRRGV | 0.448 ± 0.4 |
| ALSNGNVLHGLSMLSYMHCW | -0.388 ± 1.1 |
| ALSSNPVLSCKLC | 6.917 ± 0.027 |

| Substance | amyloid nucleation score |
| --- | --- |
| ALWVKGMFGGTMTRGILFLC | -0.369 ± 1.1 |
| ALYCERCYWPV | 0.092 ± 0.53 |
| ALYETTVPLLVWLGA | 0.463 ± 0.24 |
| AMAVLALHTVRSQLP | 5.988 ± 0.037 |
| AMFSEVYASHQVVPYPLSLS | 0.746 ± 0.62 |
| AMPSRDLITR | 2.52 ± 0.075 |
| AMRGI | 1.26 ± 0.23 |
| AMVLFDGNVLWIHDRSCRRI | 0.862 ± 0.53 |
| AMYEH | 0.518 ± 0.46 |
| AMYIIAFSPTK | 1.36 ± 0.67 |
| ANGIFAEGGVREDSIH | inactive |
| ANGLVPYVTFLVLYALHTGT | 1.41 ± 0.38 |
| ANHVSKDIFVNCEVKVPHVW | 5.937 ± 0.051 |
| ANPTADP | 0.578 ± 0.29 |
| ANRWSMQGSERASSANWHRW | 4.63 ± 0.054 |
| ANSNIHLVPMTLSTDEVPLP | 0.413 ± 0.43 |
| APCNKESIKRARGWAVRWSW | 3.12 ± 0.077 |
| APFARSCDNWILGIFVFILG | 6.125 ± 0.042 |
| APFCSIVTTDVP | -0.363 ± 1.1 |
| APKGMTLFPQMLTLMCNTVG | 0.56 ± 0.74 |
| APPLTLELQYGWPLQRPLTK | 0.275 ± 0.33 |
| AQGILVLLSSD | 0.23 ± 0.47 |
| AQISVSYGIWDSCTC | 8.773 ± 0.032 |
| AQTWMAKTISKDAVGGSPLS | 0.272 ± 0.56 |
| ARLLSG | 0.626 ± 0.5 |

| Substance | amyloid nucleation score |
| --- | --- |
| ARNTDNPMSNGPYIWIGPY | 1.21 ± 0.2 |
| ARRKVSHNV | 0.205 ± 0.77 |
| ARSNFLFRHNILFFVYFITS | -1.48 ± 1.1 |
| ARWLSSAYSMIYEFSLLKSW | 0.706 ± 0.74 |
| ASDRGI | 0.532 ± 0.18 |
| ASDRWMVYLIHVTSCYVLRV | -0.062 ± 0.41 |
| ASELLGYMCDIVASLGVVRY | 0.747 ± 0.43 |
| ASFMPLFGGLGFLQKNEITM | 3.7 ± 0.077 |
| ASGQWGPD | -0.67 ± 0.76 |
| ASGVIDIGYIIVEVVMIFYI | -0.697 ± 0.5 |
| ASITYNACLKPLQM | 0.313 ± 0.64 |
| ASIVNYHFD | inactive |
| ASLAEKGL | -0.497 ± 0.38 |
| ASLHWKMFLMAFLTASIVHA | -0.337 ± 0.55 |
| ASLSMSLFFALSVA | inactive |
| ASRKSLPEWLWIAWRHASGT | 1.29 ± 0.15 |
| ASRMPSGVRSFWAKPR | 0.321 ± 0.32 |
| ASRNLMYVHNFSSAGLKVLP | 0.178 ± 0.65 |
| ASSALHRVMVLAVTFFRHSS | 0.839 ± 0.41 |
| ASVILTEPFMQGFSIYVGAG | -0.746 ± 0.49 |
| ASVLTDPGVRSGRLRVCVGQ | -0.121 ± 0.35 |
| ASYLLKVVVYIHLSGSHGVD | 4.55 ± 0.068 |
| ATDADGRLISY | 1.31 ± 0.25 |
| ATFFM | -0.011 ± 1.1 |
| ATGMIPVNLQATIWEVHEVG | 2.68 ± 0.21 |

| Substance | amyloid nucleation score |
| --- | --- |
| ATLGTVRCYRKRAIFFEGHL | 1.17 ± 0.45 |
| ATLNVLDPHFYNMY | -0.691 ± 0.41 |
| ATTFKPAHLSRYMWLATYPV | 0.765 ± 0.41 |
| ATYIGRSNVSRWVVRAMSSS | 5.25 ± 0.073 |
| AVAASLMFYVCFITADIADM | 0.859 ± 0.74 |
| AVHDGFDRNMAIKGTGGRWW | 3.79 ± 0.098 |
| AVIMALNIGWRRRDSGWDGV | 5.9 ± 0.083 |
| AVLLNA | 0.181 ± 0.34 |
| AVMTRFEDVYDCAVSTCKMG | -0.363 ± 1 |
| AVPAVRVNGLHIRNCGYTGP | 1.22 ± 0.2 |
| AVQEEARLALSVEPWSSDSG | 1.22 ± 0.28 |
| AVRELVYDLLASKNFWTSNA | 0.932 ± 0.2 |
| AVRVGGTGFRVRS | -0.121 ± 0.48 |
| AVVGDMGIC | -0.511 ± 0.63 |
| AVVVREAFLLFLKAIERAGI | -1.31 ± 0.55 |
| AWANRMWWAR | 4.23 ± 0.074 |
| AWESNCIVRFKY | 4.36 ± 0.089 |
| AWGRARNVRFYFVLRGESGL | 2.79 ± 0.12 |
| AWKAVY | -0.585 ± 0.63 |
| AWKMVMRLDARPLARFWGDG | 5.34 ± 0.092 |
| AWRMCTV | 0.302 ± 0.33 |
| AWRYWFHTLSLTLKNWTSVF | 5.14 ± 0.087 |
| AYDRIY | 0.367 ± 0.74 |
| AYILAVVCPVVRKIGSQYDE | 1.87 ± 0.15 |
| AYKTSHVWSLYRVHGV | 0.41 ± 0.25 |

| Substance | amyloid nucleation score |
| --- | --- |
| AYLFHLFIIS | -0.017 ± 0.48 |
| AYPVES | 1.19 ± 0.23 |
| AYSGIFTRNAEVYSDIYLQ | -0.499 ± 0.76 |
| AYYYWLGG | -0.381 ± 1.1 |
| CAFYDYGKALPRGNFRLSKM | -0.208 ± 1 |
| CAIFVRERW | 5.03 ± 0.089 |
| CAKLGTSSRFIFE | 0.073 ± 1.1 |
| CARVMLFIMSEMIEFTFYGL | 2.89 ± 0.14 |
| CASVSQGPKQLLPPNVTGLY | -0.176 ± 0.45 |
| CCFGVQVEGT | -0.461 ± 0.79 |
| CCISMDVLWRLSEQP | 6.385 ± 0.05 |
| CCWVSLMRGNRLSTDSSNTL | -0.087 ± 0.37 |
| CDFAIPYYNGPYSQKFLMTS | -0.321 ± 0.8 |
| CDHQRLMTYLVPAGYMPDTM | -0.201 ± 0.62 |
| CDILYLNMFAIFDFFDPVKL | inactive |
| CDPVSNFCIMLMCFIREYGR | 1.99 ± 0.087 |
| CDTYNFCIL | 6.124 ± 0.035 |
| CDVFMQAKIASVMGYDVQRA | -0.225 ± 0.41 |
| CEFALYAFWCCIYLRFNKYS | -0.606 ± 0.44 |
| CEGCHATKYRVRSWS | 1.01 ± 0.31 |
| CEGNGVFYGLPYSGSDIPNR | -0.719 ± 0.61 |
| CESHVSRWYSVS | 0.505 ± 0.27 |
| CEVFYSVGRSK | -0.633 ± 1.1 |
| CEVLKHSCTDSEMHAKADGV | -0.307 ± 0.23 |
| CFANRNRFFMSLSEHHTFDG | -0.798 ± 1.1 |

| Substance | amyloid nucleation score |
| --- | --- |
| CFCQTCSLSRAKSMEEGCLR | -1.08 ± 0.54 |
| CFEMV | -0.886 ± 0.21 |
| CFESHWCRYPLDGRLGHKEF | inactive |
| CFFTSYTRA | -0.114 ± 0.55 |
| CFGFYGAIVD | 0.023 ± 0.39 |
| CFGMLS | -0.679 ± 1.1 |
| CFGRGLCVSIGVVRCTGGPC | 0.119 ± 0.62 |
| CFIRFSRMGLFLFCLPKNLQ | -1.59 ± 0.53 |
| CFISQILEFCCSFIFSRDFF | 0.286 ± 0.27 |
| CFMLVFSRTCVSMYTIVNPS | 4.59 ± 0.11 |
| CFNSTDN | inactive |
| CFRKLQYISFYYTTWVILDA | inactive |
| CFRLD | inactive |
| CFSCVFIMDCCRH | 7.954 ± 0.062 |
| CFSHYHDSFLPGWYYSGNYV | -0.788 ± 0.4 |
| CFSRMRRTEW | -0.142 ± 0.23 |
| CFTNIYRKGMMCYGPFTAMT | -0.214 ± 1.1 |
| CFVNGLRNSHLGNLVWVPIG | -1 ± 0.39 |
| CFVVRE | 0.404 ± 0.46 |
| CGFFKVRENGFCGFKKMSFS | -1.12 ± 1.1 |
| CGILYSFDGRFVYWSSYGSS | -0.353 ± 0.79 |
| CGNPFGLSTHFNYLRRMPWE | 0.116 ± 0.25 |
| CGSQKWVQYKIMKWYK | 0.627 ± 0.57 |
| CGVFCLV | 1.44 ± 0.41 |
| CGVFSLQCYHVDESTRCREF | 6.401 ± 0.061 |

| Substance | amyloid nucleation score |
| --- | --- |
| CGVVSLCSGWSLMYDRGWWG | 10.2 ± 0.054 |
| CGYVEV | 0.244 ± 0.65 |
| CIMMYVT | 0.259 ± 0.17 |
| CISSKHISVGVTDNLVVV | 0.436 ± 0.8 |
| CKALCIKIWVERVTC | 2.31 ± 0.16 |
| CKDTTKPGYFGFDIFPNVYE | 2.37 ± 0.15 |
| CKENFKIFFDFYYGMTSVLS | inactive |
| CKKLMLILEFWMCMLSLNIA | 3.58 ± 0.072 |
| CKLHRVYAIFFSMD | inactive |
| CKLTATCQSQMTEIGLGSFA | 3.62 ± 0.046 |
| CKTLVSGGL | -0.344 ± 0.41 |
| CLAVIQWFPCIVDMGLECGF | 2.96 ± 0.049 |
| CLCGPRIGLSVFNYVYFGMG | 4.2 ± 0.046 |
| CLDLLWHSWASYLLAGALWW | 0.94 ± 0.74 |
| CLEMFLKLCSLECARMKLPR | 5.673 ± 0.04 |
| CLFWLHQHMQYFHVMGLSPT | 2.21 ± 0.22 |
| CLHCSRFSKTLYRKFRNREN | -0.33 ± 0.76 |
| CLKPFRHTFEFLYQVDFTEV | -1.56 ± 1.1 |
| CLLHMWIGLSSKVGGVRDA | -0.781 ± 0.79 |
| CLLLRVTR | 0.015 ± 0.27 |
| CLPGTCRRCQWGRGIDQSSE | 0.317 ± 0.41 |
| CLSRHAHRRRGMVYAGDYRA | -0.256 ± 0.49 |
| CLTSGHL | 0.372 ± 0.74 |
| CLVINSIKVFYARVGTSYKF | 2.01 ± 0.19 |

— the supplement of paper PMC12042874
